Measured values from IntAct's records for PubMed 17485491.

B1: Serine/threonine-protein kinase D1 (Mus musculus), Q62101 (parent)
chain: MSVPPLLRPPSPLLPAAAAVAAAAAALVPGSGPAPFPAPGAAPAGGISFHLQIGLSREPVLLLQDSSGDYSLAHVREMACSIVDQKFPECGFYGLYDKILLFRHDPASDNILQLVKIASDIQEGDLIEVVLSASATFEDFQIRPHALFVHSYRAPAFCDHCGEMLWGLVRQGLKCEGCGLNYHKRCAFKIPNNCSGVRRRRLSNVSLTGLGTVRTASAEFSTSVPDEPLLSPVSPGFEQKSPSESFIGREKRSNSQSYIGRPIQLDKLLMSKVKVPHTFVIHSYTRPTVCQFCKKLLKGLFRQGLQCKDCRFNCHKRCAPKVPNNCLGEVTINGELLSPGAESDVVMEEGSDDNDSERNSGLMDDMDEAMVQDTEMALAEGQSGGAEMQDPDADQEDSNRTISPSTSNNIPLMRVVQSVKHTKRRSSTVMKEGWMVHYTSKDTLRKRHYWRLDSKCITLFQNDTGSRYYKEIPLSEILCLEPAKPSALTPVGATPHCFEITTANVVYYVGENVVNPSSSPPNNSVLPSGIGPDVARMWEVAIQHALMPVIPKGSSVGSGSNSHKDISVSISVSNCQIQENVDISTVYQIFPDEVLGSGQFGIVYGGKHRKTGRDVAIKIIDKLRFPTKQESQLRNEVAILQNLHHPGVVNLECMFETPERVFVVMEKLHGDMLEMILSSEKGRLPEHITKFLITQILVALRHLHFKNIVHCDLKPENVLLASADPFPQVKLCDFGFARIIGEKSFRRSVVGTPAYLAPEVLRNKGYNRSLDMWSVGVIIYVSLSGTFPFNEDEDIHDQIQNAAFMYPPNPWKEISHEAIDLINNLLQVKMRKRYSVDKTLSHPWLQDYQTWLDLRELECRIGERYITHESDDSRWEQYAGEQGLQYPAHLISLSASHSDSPEAEEREMKALSERVSIL

Variants of: B1
Conditions: with itb3_human ITGB3, P05106
Chain of itb3_human ITGB3, P05106 (P05106 whole entry): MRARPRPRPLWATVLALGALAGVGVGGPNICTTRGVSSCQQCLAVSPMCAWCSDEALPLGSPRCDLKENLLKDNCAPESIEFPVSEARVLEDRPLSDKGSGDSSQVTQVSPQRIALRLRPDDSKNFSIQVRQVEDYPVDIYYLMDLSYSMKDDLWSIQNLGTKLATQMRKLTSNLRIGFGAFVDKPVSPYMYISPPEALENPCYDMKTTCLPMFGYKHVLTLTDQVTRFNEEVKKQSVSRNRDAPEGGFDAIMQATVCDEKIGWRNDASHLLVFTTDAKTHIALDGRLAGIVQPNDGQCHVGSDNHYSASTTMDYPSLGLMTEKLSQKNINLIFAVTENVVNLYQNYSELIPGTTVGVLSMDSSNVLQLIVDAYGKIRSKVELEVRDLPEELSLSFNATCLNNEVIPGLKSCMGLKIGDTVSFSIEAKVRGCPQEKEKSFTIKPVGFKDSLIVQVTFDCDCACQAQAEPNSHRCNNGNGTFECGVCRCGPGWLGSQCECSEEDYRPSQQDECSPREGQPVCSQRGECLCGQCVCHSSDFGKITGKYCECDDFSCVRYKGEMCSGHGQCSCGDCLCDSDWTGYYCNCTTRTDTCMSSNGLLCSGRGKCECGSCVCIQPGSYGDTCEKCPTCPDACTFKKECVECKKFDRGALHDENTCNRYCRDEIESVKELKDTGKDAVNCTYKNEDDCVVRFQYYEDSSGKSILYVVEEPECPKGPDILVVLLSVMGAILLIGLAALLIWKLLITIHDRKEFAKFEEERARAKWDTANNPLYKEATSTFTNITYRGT

Variant | effect of a mutation on the interaction
S916A | decreasing interaction

Variants of: B1
Conditions: with itb3_human ITGB3, P05106
Remark: another data set of the same source

Variant | effect of a mutation on the interaction
S916A | disrupting interaction
